In article PMC2948018, “Identification of Thioaptamer Ligand against E-Selectin: Potential Application for Inflamed Vasculature Targeting”:

What was measured:
Experiment in all cases: EMSA; 5 mM Mg2+, Ca2+; EMSA: PBS with Ca2+ and Mg2+, 5 mM MgCl2, 1% NP40, room temperature 45 min, 4.6 pmol ESTA-1 with 0-19 pmol selectin in 10.5 ul, 6% gel run at 4 C; cell binding: 20 min at 37 C; pH not stated
L-selectin = molecular target: T1, L-selectin (UniProt P14151 39-332); conditions: protein: recombinant; label: none in EMSA (SYBR Gold stain); two hairpin loops (MFOLD)
T1 sequence: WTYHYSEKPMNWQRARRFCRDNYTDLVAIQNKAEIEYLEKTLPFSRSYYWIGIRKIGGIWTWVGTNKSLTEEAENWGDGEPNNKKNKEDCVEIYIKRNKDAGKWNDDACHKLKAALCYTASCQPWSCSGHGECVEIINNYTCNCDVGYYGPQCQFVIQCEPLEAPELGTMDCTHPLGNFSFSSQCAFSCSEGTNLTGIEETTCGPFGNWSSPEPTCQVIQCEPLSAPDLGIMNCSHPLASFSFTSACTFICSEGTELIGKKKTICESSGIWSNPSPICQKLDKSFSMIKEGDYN

[1] = molecular target: T2, E-selectin extracellular domain (human, UniProt P16581 22-556); conditions: protein: commercial; label: none in EMSA (SYBR Gold stain); two hairpin loops (MFOLD)
T2 sequence: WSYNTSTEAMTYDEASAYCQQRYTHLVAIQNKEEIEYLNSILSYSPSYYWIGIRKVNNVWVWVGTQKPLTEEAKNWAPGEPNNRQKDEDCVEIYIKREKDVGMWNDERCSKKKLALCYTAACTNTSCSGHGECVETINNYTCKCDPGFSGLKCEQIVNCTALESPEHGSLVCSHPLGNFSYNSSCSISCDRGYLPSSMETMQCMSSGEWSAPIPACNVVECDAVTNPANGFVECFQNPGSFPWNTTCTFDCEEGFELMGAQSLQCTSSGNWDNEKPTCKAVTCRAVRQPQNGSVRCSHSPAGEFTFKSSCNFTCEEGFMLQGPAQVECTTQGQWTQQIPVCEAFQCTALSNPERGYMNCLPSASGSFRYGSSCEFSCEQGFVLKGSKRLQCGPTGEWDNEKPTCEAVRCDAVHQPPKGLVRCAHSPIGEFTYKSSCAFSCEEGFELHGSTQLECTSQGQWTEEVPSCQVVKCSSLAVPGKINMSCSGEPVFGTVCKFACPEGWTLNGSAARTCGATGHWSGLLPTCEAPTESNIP

P-selectin = P-selectin (UniProt P16109 42-771); conditions: protein: recombinant; label: none in EMSA (SYBR Gold stain); two hairpin loops (MFOLD)
P-selectin, sequence (P16109 42-771): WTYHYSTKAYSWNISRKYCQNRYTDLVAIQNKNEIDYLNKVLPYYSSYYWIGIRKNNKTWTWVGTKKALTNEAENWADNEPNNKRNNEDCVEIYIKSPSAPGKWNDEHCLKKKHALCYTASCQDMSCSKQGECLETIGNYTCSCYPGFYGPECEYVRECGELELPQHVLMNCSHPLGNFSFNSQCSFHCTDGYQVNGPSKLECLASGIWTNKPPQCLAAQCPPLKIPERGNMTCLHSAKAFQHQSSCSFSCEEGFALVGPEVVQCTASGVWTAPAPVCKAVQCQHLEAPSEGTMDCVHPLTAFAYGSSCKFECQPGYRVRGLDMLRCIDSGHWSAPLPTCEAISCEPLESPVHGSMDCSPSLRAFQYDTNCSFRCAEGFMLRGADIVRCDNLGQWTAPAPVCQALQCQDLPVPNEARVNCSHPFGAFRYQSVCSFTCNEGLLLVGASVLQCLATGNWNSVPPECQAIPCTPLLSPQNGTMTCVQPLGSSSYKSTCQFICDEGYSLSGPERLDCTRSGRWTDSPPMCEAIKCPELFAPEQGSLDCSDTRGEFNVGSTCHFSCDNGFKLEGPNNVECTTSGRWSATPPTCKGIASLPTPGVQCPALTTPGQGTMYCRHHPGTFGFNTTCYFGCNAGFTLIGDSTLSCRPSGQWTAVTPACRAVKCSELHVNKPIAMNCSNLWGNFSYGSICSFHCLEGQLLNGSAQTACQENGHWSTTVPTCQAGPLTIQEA

B1: ESTA-1 (TA-1) (XNA)
DNA: CGCTCGGATCGATAAGCTTCGATCCCACTCTCCCGTTCACTTCTCCTCACGTCACGGATCCTCTAGAGCACTG
modifications: monothiophosphate (Rp) at all dA except 5' primer region
For B1, the binding result (L-selectin) was “no binding”, the Kd [1] was 0.047 µM and the Kd (P-selectin) was ~13 µM.
